Test results taken from article PMC5704366.

Target: mononucleosome assembled with an octamer lacking the H4 tail (human) (UniProt P0C0S8)
Assay: pull-down

HIV-1 integrase, wild type (from UniProt P12497 1148-1435) (enzyme)
percent less efficient binding than to native MN: 50 to 60%
